Assay results: PMC3919030

Assays:
Settings in all cases: remark: other sources report otherwise
[1] = target: T1, S. cerevisiae Vps4p (wild type) (S. cerevisiae), P52917; test: AUC
T1 chain: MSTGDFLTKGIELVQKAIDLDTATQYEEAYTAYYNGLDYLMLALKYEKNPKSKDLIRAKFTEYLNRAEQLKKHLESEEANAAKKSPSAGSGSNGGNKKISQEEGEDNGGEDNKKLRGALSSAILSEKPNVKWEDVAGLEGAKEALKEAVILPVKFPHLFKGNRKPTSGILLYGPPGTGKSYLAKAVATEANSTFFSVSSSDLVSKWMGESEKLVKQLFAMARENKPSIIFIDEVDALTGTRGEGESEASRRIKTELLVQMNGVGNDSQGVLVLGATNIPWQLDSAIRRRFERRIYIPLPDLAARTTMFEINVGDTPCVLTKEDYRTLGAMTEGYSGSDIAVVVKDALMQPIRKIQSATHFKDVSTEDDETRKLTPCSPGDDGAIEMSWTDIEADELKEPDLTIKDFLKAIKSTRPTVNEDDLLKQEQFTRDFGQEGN

[2] = target: T1, S. cerevisiae Vps4p (wild type) (S. …); test: AUC
[3] = target: T1, S. cerevisiae Vps4p (wild type) (S. …); test: SEC
[4] = target: T1, S. cerevisiae Vps4p (wild type) (S. …); test: SEC
[5] = target: T1, S. cerevisiae Vps4p (wild type) (S. …); test: SEC
[6] = target: T1, S. cerevisiae Vps4p (wild type) (S. …); test: SEC

Measured: stoichiometry N

B1: S. cerevisiae Vps4p (wild type), P52917 1-437 (enzyme)
chain: T1 chain
6: all assays above
